For series [1], the target named is N-terminal tagged Halo635 LIG3α (DNA Ligase 3α, nuclear, wild type). As to the kind of experiment: single-molecule fluorescence colocalisation on tethered DNA (SMADNE, LUMICKS C-trap); as a1 but on calf-intestinal alkaline phosphatase (CIP) treated nicked λ DNA with 8 observable non-ligatable (5'OH) nick sites, 10 pN tension.
The target in series [2] is Cy3-labeled human histone nucleosome core particle reconstituted on the Widom 601 sequence (human). As to the kind of experiment: single-molecule fluorescence imaging on a tethered nucleosome (SMADNE, LUMICKS C-trap); Cy3-labeled undamaged 601 NCP ligated into 6 kb biotinylated DNA handles and tethered between optically trapped streptavidin beads, 4–5 pN tension; tagged proteins from nuclear extract; lifetimes from …; KD from koff, apparent kon and protein concentration.

Series [3] deals with Halo 635-K421A LIG3α (catalytically dead). As to the kind of experiment: single-molecule fluorescence colocalisation on tethered DNA (SMADNE, LUMICKS C-trap); nuclear extract diluted 1:10 in 20mM HEPES pH 7.5, 150mM NaCl, 1mM DTT, 5% glycerol, 0.5mg/ml BSA, 1mM trolox; nicked λ DNA with eight observable ligatable nicks tethered between streptavidin beads, 10 pN tension; kymographs at 10 frames per second; proteins at 0.1–2 nM.

Series [4] concerns the target Halo 635-ΔZnF LIG3α. The description is as above.
The target of series [5] is N-terminal tagged Halo635 LIG3α (DNA Ligase 3α, nuclear, wild type). Described as above.
Series [6] relates to T1, LIG3α WT (nuclear), P49916-3.
T1 sequence: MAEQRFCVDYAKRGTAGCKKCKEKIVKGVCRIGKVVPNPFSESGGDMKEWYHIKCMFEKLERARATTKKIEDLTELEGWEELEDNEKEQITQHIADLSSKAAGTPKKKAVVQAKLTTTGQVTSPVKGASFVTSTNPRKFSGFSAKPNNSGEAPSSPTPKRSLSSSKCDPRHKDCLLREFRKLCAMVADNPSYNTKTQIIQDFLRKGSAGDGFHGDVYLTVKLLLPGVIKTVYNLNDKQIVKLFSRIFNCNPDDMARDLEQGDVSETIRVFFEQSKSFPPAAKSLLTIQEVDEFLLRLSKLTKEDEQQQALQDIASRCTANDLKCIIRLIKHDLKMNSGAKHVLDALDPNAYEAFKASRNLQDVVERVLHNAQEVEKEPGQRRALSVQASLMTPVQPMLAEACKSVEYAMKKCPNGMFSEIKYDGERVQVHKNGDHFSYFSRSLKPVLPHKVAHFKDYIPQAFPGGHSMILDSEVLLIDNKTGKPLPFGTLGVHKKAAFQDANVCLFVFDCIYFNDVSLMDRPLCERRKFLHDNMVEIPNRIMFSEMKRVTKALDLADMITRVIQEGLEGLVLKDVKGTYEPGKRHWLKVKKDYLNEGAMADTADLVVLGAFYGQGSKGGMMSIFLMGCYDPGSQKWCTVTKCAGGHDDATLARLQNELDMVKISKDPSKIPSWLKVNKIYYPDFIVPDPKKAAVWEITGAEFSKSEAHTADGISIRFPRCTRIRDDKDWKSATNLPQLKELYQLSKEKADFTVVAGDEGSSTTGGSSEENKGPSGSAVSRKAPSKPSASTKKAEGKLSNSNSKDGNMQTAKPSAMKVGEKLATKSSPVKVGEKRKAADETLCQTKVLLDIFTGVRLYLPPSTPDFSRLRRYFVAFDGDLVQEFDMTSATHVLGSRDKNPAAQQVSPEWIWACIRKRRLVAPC
The series is described as follows: single-molecule (SMADNE, optical tweezers). The note with it: 20 mM HEPES pH 7.5, 150 mM NaCl, 1 mM DTT, 5% glycerol, 0.5 mg/ml BSA, 1 mM trolox, 25 °C, nuclear extract diluted 1:10, 10 pN (λ DNA) or 4-5 pN (NCP).

Series [7] deals with T2, LIG3α ZnF-BRCT internal_change, P49916-3.
T2 sequence: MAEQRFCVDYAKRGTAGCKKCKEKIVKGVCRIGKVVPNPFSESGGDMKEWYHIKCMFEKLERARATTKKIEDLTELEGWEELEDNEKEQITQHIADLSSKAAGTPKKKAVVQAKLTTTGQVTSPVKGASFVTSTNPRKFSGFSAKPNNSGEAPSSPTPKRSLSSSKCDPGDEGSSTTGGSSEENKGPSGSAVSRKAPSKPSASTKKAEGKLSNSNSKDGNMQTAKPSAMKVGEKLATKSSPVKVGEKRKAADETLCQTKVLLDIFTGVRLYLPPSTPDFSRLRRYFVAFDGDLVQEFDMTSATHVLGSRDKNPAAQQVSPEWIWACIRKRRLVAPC
The series is described as follows: single-molecule (SMADNE, optical tweezers). The note with it: 20 mM HEPES pH 7.5, 150 mM NaCl, 1 mM DTT, 5% glycerol, 0.5 mg/ml BSA, 1 mM trolox, 25 °C, nuclear extract diluted 1:10, 10 pN (λ DNA) or 4-5 pN (NCP).

The target of series [8] is XRCC1-YFP (UniProt P18887). As to the kind of experiment: single-molecule (SMADNE, optical tweezers). The note with it: 20 mM HEPES pH 7.5, 150 mM NaCl, 1 mM DTT, 5% glycerol, 0.5 mg/ml BSA, 1 mM trolox, 25 °C, nuclear extract diluted 1:10, 10 pN (λ DNA) or 4-5 pN (NCP).
Series [9] addresses Cy3-labeled human histone nucleosome core particle reconstituted on the Widom 601 sequence (human). As to the kind of experiment: single-molecule fluorescence imaging on a tethered nucleosome (SMADNE, LUMICKS C-trap); as a3 but 601 NCP with one non-ligatable nick (3'OH and 5'OH) at SHL 0, 5 pN tension.
The target is the same in series [10]. The series is described as follows: single-molecule fluorescence imaging on a tethered nucleosome (SMADNE, LUMICKS C-trap); as a3 but 601 NCP with one non-ligatable nick (3'OH and 5'OH) at SHL -2.5, 5 pN tension.
For series [11] the target is unchanged. The series is described as follows: single-molecule fluorescence imaging on a tethered nucleosome (SMADNE, LUMICKS C-trap); as a3 but 601 NCP with one non-ligatable nick (3'OH and 5'OH) at SHL -4.5, 5 pN tension.
Series [12] deals with XRCC1-YFP (UniProt P18887). The series is described as follows: single-molecule (SMADNE, optical tweezers). The note with it: nicks with 3'OH and 5'P; 20 mM HEPES pH 7.5, 150 mM NaCl, 1 mM DTT, 5% glycerol, 0.5 mg/ml BSA, 1 mM trolox, 25 °C; nuclear extract diluted 1:10; 10 pN (λ DNA) or 4-5 pN (NCP).
The subject of series [13] is LIG3α K421A. As to the kind of experiment: single-molecule (SMADNE, optical tweezers). Conditions: nicks with 3'OH and 5'P; 20 mM HEPES pH 7.5, 150 mM NaCl, 1 mM DTT, 5% glycerol, 0.5 mg/ml BSA, 1 mM trolox, 25 °C; nuclear extract diluted 1:10; 10 pN (λ DNA) or 4-5 pN (NCP).
The subject of series [14] is T3, LIG3α ΔZnF, P49916-3.
T3 sequence: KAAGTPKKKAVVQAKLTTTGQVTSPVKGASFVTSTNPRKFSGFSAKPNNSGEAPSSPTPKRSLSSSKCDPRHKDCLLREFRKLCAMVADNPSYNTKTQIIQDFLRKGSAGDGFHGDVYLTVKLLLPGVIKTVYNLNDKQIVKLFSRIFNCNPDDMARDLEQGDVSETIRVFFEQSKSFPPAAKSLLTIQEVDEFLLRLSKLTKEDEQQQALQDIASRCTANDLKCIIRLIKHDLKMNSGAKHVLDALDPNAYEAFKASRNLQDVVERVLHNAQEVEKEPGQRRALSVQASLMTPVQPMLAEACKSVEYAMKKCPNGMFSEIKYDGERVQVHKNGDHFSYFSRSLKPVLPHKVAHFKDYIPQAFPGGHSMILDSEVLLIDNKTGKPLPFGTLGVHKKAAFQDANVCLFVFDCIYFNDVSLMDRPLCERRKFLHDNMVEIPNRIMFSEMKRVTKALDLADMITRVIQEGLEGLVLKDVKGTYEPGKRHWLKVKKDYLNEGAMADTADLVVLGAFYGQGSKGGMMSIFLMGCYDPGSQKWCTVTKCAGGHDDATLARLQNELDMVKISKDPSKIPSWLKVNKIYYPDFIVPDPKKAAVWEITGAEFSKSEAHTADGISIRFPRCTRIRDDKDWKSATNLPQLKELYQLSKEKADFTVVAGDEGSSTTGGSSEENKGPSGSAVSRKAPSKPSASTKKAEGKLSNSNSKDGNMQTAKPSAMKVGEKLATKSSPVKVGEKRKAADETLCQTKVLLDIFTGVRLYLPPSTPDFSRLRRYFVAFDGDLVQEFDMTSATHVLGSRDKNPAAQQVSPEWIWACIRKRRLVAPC
As to the kind of experiment: single-molecule (SMADNE, optical tweezers). The note with it: nicks with 3'OH and 5'P; 20 mM HEPES pH 7.5, 150 mM NaCl, 1 mM DTT, 5% glycerol, 0.5 mg/ml BSA, 1 mM trolox, 25 °C; nuclear extract diluted 1:10; 10 pN (λ DNA) or 4-5 pN (NCP).

[15] abbreviates: 5'-phosphates removed (5'OH at nicks).

Sequence of XRCC1-YFP (P18887 whole entry): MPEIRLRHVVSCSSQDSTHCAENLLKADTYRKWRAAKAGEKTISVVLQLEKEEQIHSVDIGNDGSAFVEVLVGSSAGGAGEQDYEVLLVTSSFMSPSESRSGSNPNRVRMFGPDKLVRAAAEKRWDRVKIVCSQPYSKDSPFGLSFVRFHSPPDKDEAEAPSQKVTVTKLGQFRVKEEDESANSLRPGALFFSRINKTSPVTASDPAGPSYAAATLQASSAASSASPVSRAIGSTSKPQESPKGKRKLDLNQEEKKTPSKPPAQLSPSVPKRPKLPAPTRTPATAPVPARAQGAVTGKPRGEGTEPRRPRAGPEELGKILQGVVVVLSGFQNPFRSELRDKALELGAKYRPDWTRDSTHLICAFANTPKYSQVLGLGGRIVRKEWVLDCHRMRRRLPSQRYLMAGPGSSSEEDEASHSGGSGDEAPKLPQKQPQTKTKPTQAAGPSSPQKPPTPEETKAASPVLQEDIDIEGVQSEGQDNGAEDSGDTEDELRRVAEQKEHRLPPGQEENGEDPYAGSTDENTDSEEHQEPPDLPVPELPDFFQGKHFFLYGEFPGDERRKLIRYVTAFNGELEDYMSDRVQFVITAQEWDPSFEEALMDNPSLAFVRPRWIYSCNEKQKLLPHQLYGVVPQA
Sequence of C-terminal YFP tagged XRCC1 (X-ray cross complementing protein 1) (P18887 whole entry): as above

In the case of “C-terminal YFP tagged XRCC1 (X-ray cross complementing protein 1) (from UniProt P18887 1-633) (natural protein)”, the percent of binding events colocalized in series [1] is 9.7%; in series [3], 7.6%; in series [4] it was 16.3%; in [5], 17.1%. Besides, in series [2], the Kd is 0.6 nM. Also, the average lifetime of both proteins together on the DNA in series [5] amounted to 0.7 s.
“CAACTGAGACCATGTACCCAGTTCGAATCGGATGTATATATCTGACACGTGCCTGGAGACTAGGGAGTAATCCCCTTGGCGGTTAAAACGCGGGGGACAGCGCGTACGTGCGTTTAAGCGGTGCTAGAGCTGTCTACGACCAATTGAGCGGCCTCGGCACCGGGATTCTCGATAACTCAGCAATAGTGGGTCTCA / ACCATGAGACCCACTATTGCTGAGTTATCGAGAATCCCGGTGCCGAGGCCGCTCAATTGGTCGTAGACAGCTCTAGCACCGCTTAAACGCACGTACGCGCTGTCCCCCGCGTTTTAACCGCCAAGGGGATTACTCCCTAGTCTCCAGGCACGTGTCAGATATATACATCCGATTCGAACTGGGTACATGGTCTCA [undamaged 601 NCP]”: the Kd came to 0.03 nM in series [6] (5'-phosphate on both strands), 1.1 nM in series [7] (5'-phosphate on both strands) and 0.6 nM in series [8] (5'-phosphate on both strands).
Consider “CIP-treated nicked λ DNA, non-ligatable nicks”, for which the values for the Kd in series [6] (setting [15]) and in series [8] (setting [15]) were 1.64 nM and 17 nM, respectively.
With “N-terminal tagged Halo635 LIG3α (DNA Ligase 3α, nuclear, wild type) (enzyme)”, the lifetime (Tau) in series [9] stood at 10.2 s; in series [10] it was 12.2 s; in [11], 17.3 s; in series [2] it was 23.7 s. For the same substance, the Kd in [2] was determined as 0.03 nM. For the same substance, the lifetime in series [2] came out at 23.6 s.
Turning to “nicked λ DNA (Nt.BspQI), ligatable nicks”, the Kd in series [12] was determined as 4 nM; in series [13], 0.4 nM; in series [6] (nicks with 3'OH and 5'P), 0.1 nM; in series [7] (nicks with 3'OH and 5'P), 3.2 nM; in [14], 0.09 nM; in series [8] (nicks with 3'OH and 5'P), 1.5 nM.
In the case of single non-ligatable nick, no NCP, in series [6] (non-ligatable nick), the Kd was 2.5 nM.
